Experimental data: the RNAGym collection of RNA variant scans (doi:10.7554/elife.80360)

B1: HDV Ribozyme (parent)
chain: GGCCGGCAUGGUCCCAGCCUCCUCGCUGGCGCCGGCUGGGCAACAUUCCGAGGGGACCGUCCCCUCGGUAAUGGCGAAUGGGACCCA

Variants of: B1
Assay: self-cleavage, relative activity (ratio to wild type); higher = more cleavage; co-transcriptional

Row | Variant | self-cleavage
1 | GGCCGGCAUCGUCCCAGCCUCCUCGCUGGCGCCGGCUGGGCAACAUUCCGAGGGGACCGUCCCCUCGGUAAAGGCGAAUGGGACCCA [G10C U72A] | 0.415
2 | GGCCGGCAUCGUCCCAGCCUCCUCGCUGGCGCCGGCUGGGCAACAUUCCGAGGGGACCGUCCCCUCGGUAAGGGCGAAUGGGACCCA [G10C U72G] | 0.369
3 | GGCCGGCAUUGUCUCAGCCUCCUCGCUGGCGCCGGCUGGGCAACAUUCCGAGGGGACCGUCCCCUCGGUAAUGGCGAAUGGGACCCA [G10U C14U] | 0.672
4 | GGCCGGCAUCGACCCAGCCUCCUCGCUGGCGCCGGCUGGGCAACAUUCCGAGGGGACCGUCCCCUCGGUAAUGGCGAAUGGGACCCA [G10C U12A] | 0.123
5 | GGCCGGCAUUGUCCCAGCCUCCUCGCUGGCGCCGGCUGGGCAACAUUCCGAGGGGACCGUCCCCUCGGUAGUGGCGAAUGGGACCCA [G10U A71G] | 0.799
6 | GGCCGGCAUUGUCCCAGCCUCCUCGCUGGCGCCGGCUGGGCAACAUUCCGAGGGGACCGUCCCCUCGGUAUUGGCGAAUGGGACCCA [G10U A71U] | 0.639
7 | GGCCGGCAUCGUCCCAGCCUCCUCGCUGGCGCCGGCUGGGCAACAUUCCGAGGGGACCGUCCCCUCCGUAAUGGCGAAUGGGACCCA [G10C G67C] | 1.01
8 | GGCCGGCAUCGUCCCAGCCUCCUCGCUGGCGCCGGCUGGGCAACAUUCCGAGGGGACCGUCCCCUCAGUAAUGGCGAAUGGGACCCA [G10C G67A] | 0.712
9 | GGCCGGCAUCGUCCCAGCCUCCUCGCUGGCGCCGGCUGGGCAACAUUCCGAGGGAACCGUCCCCUCGGUAAUGGCGAAUGGGACCCA [G10C G55A] | 1.11
10 | GGCCGGCAUCGUCCCAGCCUCCUCGCUGGCGCCGGCUGGGCAACAUUCCGAGGGGACCGUCCCCUCGGUAAUGGCGAUUGGGACCCA [G10C A78U] | 0.222
11 | GGCCGGCAUCGUCCCAGCCUCCUCGCUGGCGCCGGCUGGGCAACAUUCCGAGGUGACCGUCCCCUCGGUAAUGGCGAAUGGGACCCA [G10C G54U] | 0.897
12 | GGCCGGCAUCGUCCCAGCCUCCUCGCUGGCGCCGGCUGGGCAACAUUCCGAGGGGACCGUCCUCUCGGUAAUGGCGAAUGGGACCCA [G10C C63U] | 1.03
13 | GGCCGGCAUUGUCCCAGCCUCCUCGCUGGCGCCGGCUGGGCAACAUUCCGAGGGGCCCGUCCCCUCGGUAAUGGCGAAUGGGACCCA [G10U A56C] | 0.878
14 | GGCCGGCAUUGUCCCAGCAUCCUCGCUGGCGCCGGCUGGGCAACAUUCCGAGGGGACCGUCCCCUCGGUAAUGGCGAAUGGGACCCA [G10U C19A] | 0.0946
15 | GGCCGGCAUUGUCCCAGCCUCCUCGCUGGCGUCGGCUGGGCAACAUUCCGAGGGGACCGUCCCCUCGGUAAUGGCGAAUGGGACCCA [G10U C32U] | 0.546
16 | GGCCGGCAUUGUCCCAGCCUCCUCGCUGGGGCCGGCUGGGCAACAUUCCGAGGGGACCGUCCCCUCGGUAAUGGCGAAUGGGACCCA [G10U C30G] | 0.0989

Row | Variant | self-cleavage
17 | GGCCGGCAUCGUCCCAGCCUCCUCGCUGGCGCCGGCUGGGCAACAUCCCGAGGGGACCGUCCCCUCGGUAAUGGCGAAUGGGACCCA [G10C U47C] | 0.332
18 | GGCCGGCAUCGUCCCAGCCUCCUCGCUGGCGCCGGCUGGGCAACAUUCCGAGGGGACCGUCCCCUCGGUAAUGGCGAAUGAGACCCA [G10C G81A] | 0.131
19 | GGCCGGCAUUGUCCCAGCCUCCUCGCUGGCGCCGGCUGGGCAACAUUCCGAGGGGACCGUCCCCUCGGUAAUGGCGAAUGGGCCCCA [G10U A83C] | 0.181
20 | GGCCGGCAUCGUCCCAACCUCCUCGCUGGCGCCGGCUGGGCAACAUUCCGAGGGGACCGUCCCCUCGGUAAUGGCGAAUGGGACCCA [G10C G17A] | 0.804
21 | GGCCGGCAUCGUCCCACCCUCCUCGCUGGCGCCGGCUGGGCAACAUUCCGAGGGGACCGUCCCCUCGGUAAUGGCGAAUGGGACCCA [G10C G17C] | 0.208
22 | GGCCGGCAUUGUCCCAGCCUCCUCGCUGGCGCCGGCUGGGAAACAUUCCGAGGGGACCGUCCCCUCGGUAAUGGCGAAUGGGACCCA [G10U C41A] | 0.892
23 | GGCCGGCAUUGUCCCAGCCUCCUCGCUGGCGCCGGCUGGGUAACAUUCCGAGGGGACCGUCCCCUCGGUAAUGGCGAAUGGGACCCA [G10U C41U] | 0.583
24 | GGCCGGCAUCGUCCCAGCCUCCUCGCUGGCGGCGGCUGGGCAACAUUCCGAGGGGACCGUCCCCUCGGUAAUGGCGAAUGGGACCCA [G10C C32G] | 0.0773
25 | GGCCGGCAUUGUCCCAGCCUCUUCGCUGGCGCCGGCUGGGCAACAUUCCGAGGGGACCGUCCCCUCGGUAAUGGCGAAUGGGACCCA [G10U C22U] | 0.188
26 | GGCCGGCAUUGUCCCAGCCUCCUCGCUGGCGCCGGCUGGGCAACAUUCCGAGGGGACCGUCCCCUCGGUGAUGGCGAAUGGGACCCA [G10U A70G] | 0.858
27 | GGCCGGCAUCGUCCCAGCCUCCUCGCUGGCGCCGGCUGGGCAACAUUCCCAGGGGACCGUCCCCUCGGUAAUGGCGAAUGGGACCCA [G10C G50C] | 0.923
28 | GGCCGGCAUUGUCCCAGCCUCCUCGCUGGCGCCGGCUGGGCAACAUUCCGAGGGGACCGUCCCCUCGGUAAUGGCGAAUGGGACCCU [G10U A87U] | 0.653
29 | GGCCGGCAUUGUCCCAGCCUCCUCGCUGGCGCCGGCUGGGCAACAUUCCGAGGGGACCGUCCCCUCGGUAAUGGCGAAUGGGACCCG [G10U A87G] | 0.704
30 | GGCCGGCAUCGUCUCAGCCUCCUCGCUGGCGCCGGCUGGGCAACAUUCCGAGGGGACCGUCCCCUCGGUAAUGGCGAAUGGGACCCA [G10C C14U] | 1.11
31 | GGCCGGCAUCGUCCCAGCCUCCUCGCUGGCGCCGGCUGGGCAACAUUCCGAGGGGACCGUCCCCUCGGUAAUGGCCAAUGGGACCCA [G10C G76C] | 0.861
32 | GGCCGGCAUCGUCCCAGCCUCCUCGCUGGCGCCGGCUGGGCAACAUUCCGAGGGGACCGUCCCCUCGGUAAUGGCUAAUGGGACCCA [G10C G76U] | 1.16
